Results: patent US20150132307A1 (Hoffmann-La Roche, published 2015)

Columns and labels:
[1] = biological target: T1, Biotinylated human soluble TWEAK (amino acids 99-249 of SEQ ID NO: 68) (human, UniProt O43508 99-249, biotinylated); assay: SPR (Biacore), biotinylated soluble TWEAK on streptavidin chip, 25 C
T1 construct: also called Human TWEAK
T1 sequence: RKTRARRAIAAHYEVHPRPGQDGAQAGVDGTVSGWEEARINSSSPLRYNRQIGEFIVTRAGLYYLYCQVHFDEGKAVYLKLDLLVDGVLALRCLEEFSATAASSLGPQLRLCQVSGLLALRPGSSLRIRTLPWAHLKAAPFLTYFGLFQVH
Procedure: A Biacore 2000 instrument was used with a Biacore streptavidin coated sensor mounted into the system. The system buffer HBS-ET (10 mM HEPES pH 7.4, 150 mM NaCl, 1 mM EDTA, 0.05% Tween® 20) was used at a flow rate of 100 μl/min. The sample buffer was the system buffer. Biotinylated human soluble TWEAK (amino acids 99-249 of SEQ ID NO: 68) and biotinylated murine soluble TWEAK (amino acids 81-225 of SEQ ID NO: 69) was immobilized on different flow cells on the SA sensor at 150 RU each. The flow cell FC1 was used as a blank reference cell. Each antibody was injected into the system as an analyte at 100 nM at 100 μl/min for 2 min association time. The dissociation of the immunecomplexes were monitored for 5 min. The sensor surface was washed with HBS-ET for 10 seconds and regenerated using 2×2 minutes injections with 10 mM glycine pH 2.25. This procedure was done at 25° C. The kinetically rate limiting step of the complex dissociation phase in the interval [240 s-300 s] was taken to calculate the dissociation rate kd [1/s] (Biacore Evaluation Software 4.0). According to the equation t1/2 diss=ln(2)/(60×kd), the half-life of the immunocomplexes in minutes was calculated.

[2] = biological target: T2, Human recombinant soluble TWEAK (Example 6) (human, UniProt O43508 99-249, limits assumed); assay: cell-based or functional assay
T2 sequence: T1 sequence

[3] = biological target: T3, Recombinant human TWEAK (R&D Systems; Cat. #1090-TW/CF) (human, UniProt O43508 97-249, limits assumed); assay: cell-based or functional assay
T3 sequence: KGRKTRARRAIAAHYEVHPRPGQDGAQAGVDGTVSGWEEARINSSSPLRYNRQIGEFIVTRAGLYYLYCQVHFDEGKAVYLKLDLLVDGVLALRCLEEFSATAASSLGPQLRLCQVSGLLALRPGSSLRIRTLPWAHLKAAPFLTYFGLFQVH

human Tweak-Fc [4] = biological target: T4, human Tweak-Fc (human, UniProt O43508 106-249, limits assumed); assay: SPR (BIAcore T100), TWEAK ligand (Tweak-Fc) amine-coupled on C1 chip, antibody as analyte, 25 C, apparent KD, 1:1 model
T4 construct: not shown: Fc part
T4 sequence: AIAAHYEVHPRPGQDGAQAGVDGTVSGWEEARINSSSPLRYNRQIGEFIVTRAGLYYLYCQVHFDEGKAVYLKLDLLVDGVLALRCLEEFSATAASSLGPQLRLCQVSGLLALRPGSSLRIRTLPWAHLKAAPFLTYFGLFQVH

[5] = biological target: T5, Mouse soluble TWEAK (untagged, Example 5) (mouse, UniProt O54907 105-249, limits assumed); assay: receptor interaction ELISA: mouse soluble TWEAK preincubated with antibody, then on coated mouse Fn14:Fc (competitor m22)
T5 construct: also called Murine TWEAK
T5 sequence: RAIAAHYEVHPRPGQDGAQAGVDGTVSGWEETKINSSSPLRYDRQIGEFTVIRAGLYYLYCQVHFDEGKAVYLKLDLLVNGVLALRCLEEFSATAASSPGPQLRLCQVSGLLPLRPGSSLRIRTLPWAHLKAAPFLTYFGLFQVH
Procedure: Briefly, Maxisorp plates were coated with mouse Fn14:Fc (extracellular domain of mouse Fn14 (amino acids 1-75 of SEQ ID NO: 98) fused to Fc portion of human IgG1) as described above for human Fn14:Fc, followed by blocking and washing. […] After 1 h of incubation at room temperature and four washes, biotinylated anti-mouse TWEAK antibody at 125 ng/ml in blocking buffer was added for 1 h at room temperature, followed by another four wash steps. The TWEAK antibody was detected by incubation with streptavidin-HRP, diluted 1:5000 in blocking buffer, for 30 minutes at room temperature. Signal was developed and absorbance measured as described above.

[6] = biological target: T1, Biotinylated human soluble TWEAK (amino …); assay: SPR (Biacore), biotinylated soluble TWEAK on streptavidin chip, 37 C
human Tweak-Fc [7] = biological target: T4, human Tweak-Fc; assay: SPR (BIAcore T100), TWEAK ligand (Tweak-Fc) amine-coupled on C1 chip, antibody as analyte, 25 C
Procedure: (§1) Around 100 resonance units (RU) of TWEAK was immobilized on the C1 chip surface at pH 5.0 using an amine coupling kit supplied by the GE Healthcare. The sample and system buffer was PBS-T (10 mM phosphate buffered saline including 0.05% Tween20) pH 7.4. Association was measured by injection the bispecific antibody in various concentrations in solution for 3 min at a flow of 30 μl/min starting with 50 nM in 1:1 dilutions. The dissociation phase was monitored for up to 10 min and triggered by switching from the sample solution to running buffer. The surface was regenerated by three times 30 sec. washing with a 3M MgCl2 solution at a flow rate of 30 μl/min. Bulk refractive index differences were corrected by subtracting the response obtained from a blank-coupled surface. Blank injections are also subtracted (=double referencing). For calculation of apparent KD and other kinetic parameters the Langmuir 1:1 model was used.

human Tweak-Fc [8] = biological target: T4, human Tweak-Fc; assay: SPR (BIAcore T100), TWEAK ligand (Tweak-Fc) amine-coupled on C1 chip, antibody as analyte, 25 C, 1:1 model
Procedure: as §1

[9] = biological target: T6, human Flag-tagged soluble TWEAK (amino acids 106-249) (human, UniProt O43508 106-249); assay: receptor interaction ELISA: Flag-TWEAK preincubated with antibody, then on coated human Fn14:Fc (competitor m21)
T6 construct: The sentence gives amino acids 106-249 without naming the entry; also called Human TWEAK; not shown: Flag tag
T6 sequence: T4 sequence
Procedure: 96-well Maxisorp® plates (Nunc) were coated with 100 μl 1 μg/ml human Fn14:Fc (extracellular domain of human Fn14 (amino acids 1-75 of SEQ ID NO: 98) fused to Fc portion of human IgG1) in PBS per well for 1.5 h at room temperature and blocked with a solution of 5% FBS in PBS for 30 minutes at room temperature under shaking. […] After washing the Fn14-coated plate once with wash buffer (0.1% Tween® 20 in PBS), 100 μl of the TWEAK-antibody solution were transferred to each well and the plate was incubated for 1 h at room temperature, followed by four washes with wash buffer. Wells were filled with 100 μl of anti-FLAG-HRP detection antibody, diluted 1:5000 in blocking buffer, and incubated for 1 h at room temperature. After four more wash steps, the signal was developed by addition of 100 μl 3,3,5,5-Tetramethylbenzidine (TMB) solution for approximately ten minutes. The reaction was stopped by adding 100 μl of 1 N HCl, and absorbance measured at 450 nm (reference wavelength 620 nm).

human Tweak-Fc [10] = biological target: T4, human Tweak-Fc; assay: SPR (BIAcore T100), TWEAK ligand (Tweak-Fc) amine-coupled on C1 chip, Fab as analyte, 25 C
human Tweak-Fc [11] = biological target: T4, human Tweak-Fc; assay: SPR (BIAcore T100), TWEAK ligand (Tweak-Fc) amine-coupled on C1 chip, Fab as analyte, 25 C, apparent KD, 1:1 model
Procedure: as §1

human Tweak-Fc [12] = biological target: T4, human Tweak-Fc; assay: SPR (BIAcore T100), TWEAK ligand (Tweak-Fc) amine-coupled on C1 chip, Fab as analyte, 25 C, 1:1 model
[13] = biological target: recombinant human IL-17 (Peprotech #200-17) (human, UniProt Q16552 20-155); assay: cell-based or functional assay
Sequence of recombinant human IL-17 (Peprotech #200-17) (Q16552 20-155 limits assumed): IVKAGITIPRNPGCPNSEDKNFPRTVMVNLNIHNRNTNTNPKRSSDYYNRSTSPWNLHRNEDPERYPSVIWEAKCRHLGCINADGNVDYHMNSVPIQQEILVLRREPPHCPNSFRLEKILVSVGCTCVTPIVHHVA

IL-17 A/F = biological target: T7, IL-17 A/F (human, UniProt Q16552 24-155; Q96PD4 31-163); assay: SPR (BIAcore T100), antibody captured by anti-human F(ab')2, IL17 as analyte, 25 C, 1:1 model
T7 construct: read as the heterodimer of IL17A and IL17F
T7 sequence (Q16552 24-155 limits assumed, one chain of several): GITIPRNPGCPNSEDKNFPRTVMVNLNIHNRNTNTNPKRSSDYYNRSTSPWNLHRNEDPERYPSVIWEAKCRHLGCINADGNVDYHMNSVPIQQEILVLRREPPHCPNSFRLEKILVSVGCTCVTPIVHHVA
Procedure: (§2) Around 12000 resonance units (RU) of the capturing system (10 μg/ml goat anti human F(ab′)2; Order Code: 28958325; GE Healthcare Bio-Sciences AB, Schweden) were coupled on a CMS chip at pH 5.0 by using an amine coupling kit supplied by the GE Healthcare. The sample and system buffer was PBS-T (10 mM phosphate buffered saline including 0.05% Tween20) pH 7.4. The bispecific antibody was captured by injecting a 50 nM solution for 1 min at a flow of 10 μl/min. Association was measured by injection human IL17 in various concentrations in solution for 3 min at a flow of 30 μl/min starting with 50 nM in 1:1 dilutions. The dissociation phase was monitored for up to 5 min and triggered by switching from the sample solution to running buffer. The surface was regenerated by two times 60 sec. washing with a glycin pH 2.1 solution at a flow rate of 30 μl/min. Bulk refractive index differences were corrected by subtracting the response obtained from a goat anti human F(ab′)2 surface. Blank injections are also subtracted (=double referencing). For calculation of apparent KD and other kinetic parameters the Langmuir 1:1 model was used.

human Tweak-Fc [14] = biological target: T4, human Tweak-Fc; assay: SPR (BIAcore T100), TWEAK ligand (Tweak-Fc) amine-coupled on C1 chip, bispecific antibody as analyte, 25 C, apparent KD, 1:1 model
From the text: (§3) The BIAcore® system is well established for the study of molecule interactions. SPR-technology is based on the measurement of the refractive index close to the surface of a gold coated biosensor chip. Changes in the refractive index indicate mass changes on the surface caused by the interaction of immobilized ligand with analyte injected in solution. The mass increases if molecules bind immobilized ligands on the surface, and vice versa, the mass decreases in case of dissociation of the analyte from the immobilized ligand (reflecting complex dissociation). SPR allows a continuous real-time monitoring of ligand/analyte binding and thus the determination of the association rate constant (ka), the dissociation rate constant (kd), and of the equilibrium constant (KD).
(§4) Around 100 resonance units (RU) of TWEAK was immobilized on the C1 chip surface at pH 5.0 using an amine coupling kit supplied by the GE Healthcare. The sample and system buffer was PBS-T (10 mM phosphate buffered saline including 0.05% Tween20) pH 7.4. Association was measured by injection the bispecific antibody in various concentrations in solution for 3 min at a flow of 30 μl/min starting with 50 nM in 1:1 dilutions. The dissociation phase was monitored for up to 10 min and triggered by switching from the sample solution to running buffer. […]

human Tweak-Fc [15] = biological target: T4, human Tweak-Fc; assay: SPR (BIAcore T100), TWEAK ligand (Tweak-Fc) amine-coupled on C1 chip, bispecific antibody as analyte, 25 C, 1:1 model
From the text: as §3, §1

IL-17 F/F = biological target: T8, IL-17 F/F (human, UniProt Q96PD4 31-163); assay: SPR (BIAcore T100), antibody captured by anti-human F(ab')2, IL17 as analyte, 25 C
T8 construct: read as the homodimer of IL17F
T8 sequence: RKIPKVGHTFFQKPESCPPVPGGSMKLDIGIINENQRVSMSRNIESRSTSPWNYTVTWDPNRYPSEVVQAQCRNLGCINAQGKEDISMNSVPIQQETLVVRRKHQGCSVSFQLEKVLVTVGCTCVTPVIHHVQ
Procedure: as §2

human Tweak-Fc [16] = biological target: T4, human Tweak-Fc; assay: SPR (BIAcore T100), TWEAK ligand (Tweak-Fc) amine-coupled on C1 chip, bispecific antibody as analyte, 25 C
From the text: as §3, §4

human IL17A/A = human IL17A/A (human, UniProt Q16552 24-155, limits assumed); assay: SPR (BIAcore T100), antibody captured by anti-human F(ab')2, IL17 as analyte, 25 C, apparent KD, 1:1 model
Sequence of human IL17A/A (Q16552 24-155 limits assumed): as the sequence (Q16552 24-155 limits assumed, one chain of several) above
Procedure: as §2

B1: Humanized <TWEAK> 305- antibody 27 (antibody, V domains shown)
VH: QVQLVQSGAEVKKPGSSVKVSCKASGFDFSTYYMSWVRQAPGQGLEWMGTVYVRQGTTYYASWLNGRVTITADESTSTAYMELSSLRSEDTAVYYCARGGYNYDDAFVIWGQGTLVTVSS
VL: DIQMTQSPSSVSASVGDRVTITCQASQNIYSNLAWYQQKPGKAPKLLIYTASYLASGVPSRFSGSGSGTDYTLTISSLQPEDFATYYCQTAYYNSRPDTVAFGGGTKVEIK
With B1 the “Biacore t/2 diss. [min] 25° C. human” value [1] was 110 min, the “Inhibition of IL8-Secretion [ng/ml] (A375 cells)” value [2] was 197 ng/mL and the “IC50 (nM) per valency, Tweak induced HFLS proliferation (CellTiter Glo)” value [3] was 0.152 nM. For the same binder, the Kd (human Tweak-Fc [4]) was 0.0252 nM, the IC50 [5] was 8.2 ng/mL and the “Biacore t/2 diss. [min] 37° C. human” value [6] was 147 min. For the same binder, the “T½” value (human Tweak-Fc [7]) was 3.37 h, the koff (human Tweak-Fc [8]) was 5.71e-05 s⁻¹ and the kon (human Tweak-Fc [8]) was 2.27e+06 M⁻¹ s⁻¹. The IC50 [9] was 2.3 ng/mL.

B2: <TWEAK>305 (antibody 27) -Fab (Fab, V domains shown)
VH: B1 VH
VL: B1 VL
B2 was tested, and the “T½” value (human Tweak-Fc [10]) was 2.72 h, the Kd (human Tweak-Fc [11]) was 0.015 nM and the koff (human Tweak-Fc [12]) was 7.09e-05 s⁻¹. For the same binder, the kon (human Tweak-Fc [12]) was 4.72e+06 M⁻¹ s⁻¹.

B3: Bispecific <Tweak-IL-17> #4 antibody (bispecific antibody, human IgG1, kappa)
heavy 1: not shown
heavy 2: not shown
light: DIVMTQSPLSLPVTPGEPASISCRSSQSLVHSNGDTYFHWYLQKPGQSPQLLIYKVSNRFSGVPDRFSGSGSGTDFTLKISRVEAEDVGVYYCSQTTHAPFTFGQGTKLEIKRTVAAPSVFIFPPSDEQLKSGTASVVCLLNNFYPREAKVQWKVDNALQSGNSQESVTEQDSKDSTYSLSSTLTLSKADYEKHKVYACEVTHQGLSSPVTKSFNRGEC
notes: Bivalent one-armed scFab format (WO 2011/117330), IgG1 knobs-into-holes
For B3, the “IL-6 IC50 [nM] per valency (IL-17 induced cytokine production, HFLS-RA)” value [13] was 1.72 nM, the “IL-8 IC50 [nM] per valency (IL-17 induced cytokine production, HFLS-RA)” value [13] was 1.1 nM and the “IC50 (nM) per valency, Tweak induced HFLS proliferation (CellTiter Glo)” value [3] was 0.157 nM. The Kd (IL-17 A/F) was 0.27 nM, the Kd (human Tweak-Fc [14]) was 0.127 nM and the koff (human Tweak-Fc [15]) was 5.42e-05 s⁻¹. The kon (human Tweak-Fc [15]) was 426000 M⁻¹ s⁻¹, the binding result (IL-17 F/F) was “no binding (tested: IL17 injected starting with 50 nM)” and the “T½” value (human Tweak-Fc [16]) was 3.55 h. The Kd (human IL17A/A) was 0.15 nM.
